Reference: patent US20220282268A1 (UNIVERSITY COURT OF THE UNIVERSITY OF EDINBURGH, published 2022)
Numbering of substitutions follows the chain as printed. One block for each binder: values may come before it.

Assays:
[1] = target: T1, C. reinhardtii Rubisco small subunit 1 (S1Cr), mature (Chlamydomonas reinhardtii, UniProt P00873 46-185); assay: yeast two-hybrid (FIG. 4J)
T1 construct: also called RbcS1; Cre02.g120100.t1.2
Protocol: (§1) Competent yeast cells (Y2H Gold, Clontech) were prepared from a 50 ml culture grown in YPDA medium supplemented with kanamycin (50 μg ml⁻¹). Cells were washed with ddH2O and a lithium acetate/TE solution (100 mM LiAc, 10 mM Tris-HCl [pH 7.5], 1 mM EDTA) before re-suspending in lithium acetate/TE solution. Cells were then co-transformed with binding and activation domain vectors by mixing 50 μl of competent cells with 1 μg of each plasmid vector and a PEG solution (100 mM LiAc, 10 mM Tris-HCl [pH 7.5], 1 mM EDTA, 40% [v/v] PEG 4000). Cells were incubated at 30° C. for 30 min, then subjected to a heat shock of 42° C. for 20 min. The cells were centrifuged, re-suspended in 500 μl YPDA and incubated at 30° C. for ca 90 min, then centrifuged and washed in TE (10 mM Tris-HCl [pH 7.5], 1 mM EDTA). The pellet was re-suspended in 200 μl TE, spread onto SD-L-W (standard dextrose medium (minimal yeast medium) lacking leucine and tryptophan, Anachem) and grown for 3 days at 30° C. Ten to fifteen of the resulting colonies were pooled per co-transformation and grown in a single culture for 24 hrs. The following day 1 ml of culture was harvested, cell density (OD₆₀₀) measured, centrifuged and then diluted in TE to give a final OD₆₀₀ of 0.5 or 0.1.
(§2) Yeast cultures were then plated onto SD-L-W (yeast synthetic minimal media lacking leucine (L) and tryptophan (W)) and SD-L-W-H (yeast synthetic minimal media lacking L, W, and histidine(H)) (Anachem). Yeast expressing both binding and activation domain constructs was grown on SD-L-W to confirm presence of both plasmids. To assess interaction strength, yeast was plated onto SD-L-W-H with differing concentrations of the HIS3 inhibitor 3-aminotriazole (3-AT). These plates were then incubated for 3 days before assessing for presence or absence of growth, to perform a semi-quantitative yeast two-hybrid assay as in van Nues and Beggs (van Nues and Beggs, Genetics (2000) 157: 1451-1467). The same yeast transformation was used for each interaction study. Different colonies on the same yeast transformation plate were considered independent biological replicates (as for E. coli). Two biological replicates (top and bottom row for each interaction) were spotted from different liquid culture concentrations (0.5 and 0.1 OD). Each interaction experiment was performed at least twice.

[2] = target: T1, C. reinhardtii Rubisco small subunit 1 …; assay: yeast two-hybrid (FIG. 5E)
Protocol: as §1, §2

[3] = target: T2, 1AAtMOD (α-helices): A. thaliana SSU 1A with its two α-helices replaced with C. reinhardtii α-helices (Arabidopsis thaliana with parts of …); assay: yeast two-hybrid (FIG. 5E)
T2 construct: also called pGADT7_1AAtMOD(α-helices); hybrid 1A SSU
Protocol: as §1, §2

[4] = target: 1AAt::YFP^N (A. thaliana SSU 1A fused at the C-terminus to YFP^N) (Arabidopsis thaliana, UniProt P10795 56-180); assay: BiFC in N. benthamiana; a YFP signal was seen and is put down to self-assembly of the split YFP halves
Protocol: (§3) Bimolecular fluorescence complementation analysis (BiFC) was carried out to provide additional information about the EPYC1-Rubisco interaction in vivo. Three Rubisco SSUs (1AAt, S2Cr and 1AAtMOD) and EPYC1, each fused at the C-terminus to either YFP^N or YFP^C were transiently co-expressed in N. benthamiana (Walter, et al., Plant J. (2004) 40: 428-438).

[5] = target: T3, 1AAt::YFP^C (A. thaliana SSU 1A fused at the C-terminus to YFP^C) (Arabidopsis thaliana, UniProt P10795 56-180); assay: as above
Protocol: as §3

[6] = target: T3, 1AAt::YFP^C (A. thaliana SSU 1A fused …); assay: BiFC in N. benthamiana
Protocol: as §3

binding result [1]: binds
B1: EPYC1 N-terminus plus first repeat region (N-ter+1rep) (other)
chain: MATISSMRVGAASRVVVSGRVKTVKVAARGSWRESSTATVQASRASSATNRVSPTRSVLPANWRQELESLRNGNGSSSAASSAPAPARSSSASWRDAAPASSAPARSSSASKKA
notes: also called pGBKT7_N-ter + 1rep EPYC1

binding result [2]: binds
binding result [3]: binds
B2: synthetic EPYC1 4 reps (four tandem copies of the first repeat region) (designed binder)
chain: VSPTRSVLPANWRQELESLRNGNGSSSAASSAPAPARSSSASWRDAAPASSAPARSSSASKKAVSPTRSVLPANWRQELESLRNGNGSSSAASSAPAPARSSSASWRDAAPASSAPARSSSASKKAVSPTRSVLPANWRQELESLRNGNGSSSAASSAPAPARSSSASWRDAAPASSAPARSSSASKKAVSPTRSVLPANWRQELESLRNGNGSSSAASSAPAPARSSSASWRDAAPASSAPARSSSASKKA
notes: also called pGBKT7_synthEPYC1 4reps

binding result [4]: no binding
B3: EPYC1::YFP^C (EPYC1 fused at the C-terminus to YFP^C, with 1AAt transit peptide) (other)
chain: MATISSMRVGAASRVVVSGRVKTVKVAARGSWRESSTATVQASRASSATNRVSPTRSVLPANWRQELESLRNGNGSSSAASSAPAPARSSSASWRDAAPASSAPARSSSASKKAVTPSRSALPSNWKQELESLRSSSPAPASSAPAPARSSSASWRDAAPASSAPARSSSSKKAVTPSRSALPSNWKQELESLRSSSPAPASSAPAPARSSSASWRDAAPASSAPARSSSASKKAVTPSRSALPSNWKQELESLRSNSPAPASSAPAPARSSSASWRDAPASSSSSSADKAGTNPWTGKSKPEIKRTALPADWRKGL
notes: Expressed transiently in N. benthamiana with the 1AAt transit peptide at the N-terminus; processing in the plant not determined; also called pB7_1AAtTP::EPYC1::YFP^C; not shown: YFP^C half of split YFP (primer name YFPc155)

binding result [5]: no binding
B4: EPYC1::YFP^N (EPYC1 fused at the C-terminus to YFP^N, with 1AAt transit peptide) (other)
chain: B3 chain
notes: Expressed transiently in N. benthamiana with the 1AAt transit peptide at the N-terminus; processing in the plant not determined; also called pB7_1AAtTP::EPYC1::YFP^N; not shown: YFP^N half of split YFP (primer name YFPn173)

binding result [1]: no binding
B5: EPYC1 N-terminus (N-ter) (other)
chain: MATISSMRVGAASRVVVSGRVKTVKVAARGSWRESSTATVQASRASSATNR
notes: also called pGBKT7_N-ter EPYC1

binding result [1]: binds
B6: EPYC1 N-terminus and all four repeat regions (N-ter+4reps) (other)
chain: MATISSMRVGAASRVVVSGRVKTVKVAARGSWRESSTATVQASRASSATNRVSPTRSVLPANWRQELESLRNGNGSSSAASSAPAPARSSSASWRDAAPASSAPARSSSASKKAVTPSRSALPSNWKQELESLRSSSPAPASSAPAPARSSSASWRDAAPASSAPARSSSSKKAVTPSRSALPSNWKQELESLRSSSPAPASSAPAPARSSSASWRDAAPASSAPARSSSASKKAVTPSRSALPSNWKQELESLRSNSPAPASSAPAPARSSSASWRDAPASSSSSSADKA
notes: also called pGBKT7_N-ter + 4reps EPYC1

binding result [1]: binds
B7: EPYC1 N-terminus, first to third repeat regions (N-ter+3reps) (other)
chain: MATISSMRVGAASRVVVSGRVKTVKVAARGSWRESSTATVQASRASSATNRVSPTRSVLPANWRQELESLRNGNGSSSAASSAPAPARSSSASWRDAAPASSAPARSSSASKKAVTPSRSALPSNWKQELESLRSSSPAPASSAPAPARSSSASWRDAAPASSAPARSSSSKKAVTPSRSALPSNWKQELESLRSSSPAPASSAPAPARSSSASWRDAAPASSAPARSSSASKKA
notes: also called pGBKT7_N-ter + 3reps EPYC1

binding result [2]: binds
B8: synthetic EPYC1 1 rep (first repeat region of EPYC1, one copy) (other)
chain: VSPTRSVLPANWRQELESLRNGNGSSSAASSAPAPARSSSASWRDAAPASSAPARSSSASKKA
notes: also called native 1 rep variant; EPYC1 1 rep (wildtype)

binding result [2]: no binding
B9: synthetic EPYC1 α-helix knockout B (first repeat region with a point mutation in the α-helix) (designed binder)
chain: B8 chain with E15W
notes: also called pGBKT7_synthEPYC1 α-helix knockout 2 (probably)

binding result [2]: binds
B10: synthetic EPYC1 modified α-helix 1 rep (first repeat region with a G-Q substitution near the α-helix) (designed binder)
chain: B8 chain with G22Q
notes: also called pGBKT7_synthEPYC1 modified α-helix 1rep

binding result [2]: no binding
B11: synthetic EPYC1 α-helix knockout A (first repeat region with a point mutation in the α-helix) (designed binder)
chain: B8 chain with L19R
notes: also called pGBKT7_synthEPYC1 α-helix knockout 1 (probably)

binding result [1]: binds
B12: EPYC1 C-terminus (C-ter) (peptide)
chain: GTNPWTGKSKPEIKRTALPADWRKGL
notes: also called C-terminal tail; pGBKT7_C-ter EPYC1

binding result [6]: no binding
B13: AtCP12::YFP^N (A. thaliana CP12 fused at the C-terminus to YFP^N) (other)
chain: AAPEGGISDVVEKSIKEAQETCAGDPVSGECVAAWDEVEELSAAASHARDKKKADGSDPLEEYCKDNPETNECRTYDN
notes: Negative control of the BiFC assay; also called pICH47732_CP12At::YFP^N; not shown: YFP^N half of split YFP

binding result [1]: binds
B14: EPYC1 N-terminus, first and second repeat regions (N-ter+2reps) (other)
chain: MATISSMRVGAASRVVVSGRVKTVKVAARGSWRESSTATVQASRASSATNRVSPTRSVLPANWRQELESLRNGNGSSSAASSAPAPARSSSASWRDAAPASSAPARSSSASKKAVTPSRSALPSNWKQELESLRSSSPAPASSAPAPARSSSASWRDAAPASSAPARSSSSKKA
notes: also called pGBKT7_N-ter + 2reps EPYC1

binding result [2]: no binding
B15: synthetic EPYC1 2 α-helices 1 rep (first repeat region with an additional α-helix inserted) (designed binder)
chain: VSPTRSVLPANWRQELESLRNNWRQELESLRNGNGSSSAASSAPAPARSSSASWRDAAPASSAPARSSSASKKA
notes: also called pGBKT7_synthEPYC1 2α-helices 1rep
